One substance from PMC3245711 can be followed below.

This experiment has as its target human KCNJ12 channel (pND-CTFH construct, C-terminal FLAG and octa-histidine tags) (human) (UniProt Q14500). Put plainly: SEC.

Chain of human KCNJ12 channel (pND-CTFH construct, C-terminal FLAG and octa-histidine tags) (Q14500 whole entry): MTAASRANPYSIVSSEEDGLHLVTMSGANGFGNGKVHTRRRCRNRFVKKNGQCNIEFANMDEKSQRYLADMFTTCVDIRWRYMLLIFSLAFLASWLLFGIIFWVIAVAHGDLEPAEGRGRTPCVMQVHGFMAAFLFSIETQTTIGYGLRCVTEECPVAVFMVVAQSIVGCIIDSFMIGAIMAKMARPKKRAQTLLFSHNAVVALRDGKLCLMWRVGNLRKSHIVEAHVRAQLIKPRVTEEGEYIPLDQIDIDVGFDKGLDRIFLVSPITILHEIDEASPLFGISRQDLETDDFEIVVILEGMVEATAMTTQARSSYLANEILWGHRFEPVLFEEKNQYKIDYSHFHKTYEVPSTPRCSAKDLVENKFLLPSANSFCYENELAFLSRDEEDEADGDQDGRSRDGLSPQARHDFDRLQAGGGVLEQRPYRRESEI

By stoichiometry N is commonly meant the number of molecules, sites or subunits per partner or assembly. As for “human KCNJ12 channel (pND-CTFH construct, C-terminal FLAG and octa-histidine tags) (from UniProt Q14500 1-433) (natural protein)”, the stoichiometry N amounted to 4.
